Experimental data as given in patent publication US20250243273A1 (FOURTH MILITARY MEDICAL UNIVERSITY, published 2025).

Biological target: T1, human BASIGIN, native, on human erythrocytes and in human tumour tissue (human, UniProt P35613 22-385)
T1 sequence (looked up): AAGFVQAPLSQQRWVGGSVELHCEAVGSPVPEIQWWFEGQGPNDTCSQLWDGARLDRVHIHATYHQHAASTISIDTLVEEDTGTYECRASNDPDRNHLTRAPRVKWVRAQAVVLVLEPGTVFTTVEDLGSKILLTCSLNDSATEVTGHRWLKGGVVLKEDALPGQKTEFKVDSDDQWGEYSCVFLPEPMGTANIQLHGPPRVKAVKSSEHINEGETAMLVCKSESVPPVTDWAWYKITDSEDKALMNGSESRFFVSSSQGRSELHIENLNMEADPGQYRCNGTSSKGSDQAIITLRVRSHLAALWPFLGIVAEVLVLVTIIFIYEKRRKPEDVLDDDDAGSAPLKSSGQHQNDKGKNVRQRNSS
Experiment: cell-based or functional assay

B1: humanized antibody HP6H8-1 (antibody, V domains shown)
VH: EVQLVESGGGLVQPGGSLRLSCAASGFTFSNFWMNWVRQAPGKGLEWVSEIRLKSNNYATHYAESVKGRFTISRDDSKNTLYLQMNSLKTEDTAVYYCTSYDYEYWGQGTLVTVSA
VL: DIQMTQSPSTLSASVGDRVTLSCKASENVGTYVSWYQQKPGKAPKLLIYGASNRYTGVPSRFTGSGSGTDFTLTISSLQPEDFATYYCGQSYSYPFTFGSGTKLEIK
- IC50, in vitro inhibition of Plasmodium falciparum strain 3D7 invasion of human erythrocytes (parasite rate after 72 hrs): 20 mg/L
- IC50, in vitro inhibition of Plasmodium falciparum strain Dd2 invasion of human erythrocytes (parasite rate after 72 hrs): 40 mg/L
- IC50, in vitro inhibition of Plasmodium falciparum strain FCC1 invasion of human erythrocytes (parasite rate after 72 hrs): 40 mg/L
- IC50, in vitro inhibition of Plasmodium falciparum strain Nf54 invasion of human erythrocytes (parasite rate after 72 hrs): 50 mg/L
